We go through three molecules from US20240343803A1 (SHANDONG SIMCERE BIOPHARMACEUTICAL, published 2024).

Assay [1] deals with T1, human TIGIT ECD-his (fusion protein of extracellular domain of human TIGIT and His-tag) (human).
T1 construct: entry includes the signal peptide, limits not readable here
T1 chain: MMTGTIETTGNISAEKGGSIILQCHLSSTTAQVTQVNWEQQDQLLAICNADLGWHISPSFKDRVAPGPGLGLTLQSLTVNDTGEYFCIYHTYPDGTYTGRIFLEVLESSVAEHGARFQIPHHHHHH
Briefly: BIAcore kinetics.

In assay [2] the target is T2, full-length human TIGIT on CHO-K1 cells (CHO-K1 human TIGIT) (human, UniProt Q495A1 22-244).
T2 construct: NCBI XP_024309156.1; entry includes the signal peptide; also called high expression strain 1D2; medium expression strain 2D10
T2 sequence: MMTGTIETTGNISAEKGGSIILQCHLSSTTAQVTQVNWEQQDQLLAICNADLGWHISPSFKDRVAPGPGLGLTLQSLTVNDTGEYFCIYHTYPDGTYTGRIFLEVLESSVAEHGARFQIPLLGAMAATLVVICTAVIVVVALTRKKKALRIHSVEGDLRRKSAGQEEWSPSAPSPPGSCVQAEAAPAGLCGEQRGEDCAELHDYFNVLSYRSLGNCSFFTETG
Briefly: FACS, medium expression strain. As for the experimental part: The collected cells were washed once with PBS (Hyclone, CAT #SH30256), resuspended to 2×10⁵/50 μL with 1% BSA-PBS. The antibodies were diluted to 80 nM with 1% BSA-PBS (diluted by 3-fold serial dilution for 12 concentration points). The 50 μL cells were then mixed with 50 μL diluted antibodies, and then incubated at 4° C. for 60 minutes. […] After washing twice with PBS, the cell samples were resuspended with 1% BSA-PBS, 100 μL/well and then analyzed by flow cytometry (BD, Canto II). […] [0298] (c) The effect of anti-TIGIT chimeric antibodies blocking the interaction between Bio-CD155-His and CHO-K1 human TIGIT high expression cell strains detected by FACS

Assay [3] deals with T3, human PVRIG on FlpinCHO-PVRIG cells (human, UniProt Q6DKI7 41-326).
T3 construct: whole, on cells; also called FlpinCHO-hPVRIG; FlpinCHO-human PVRIG
T3 sequence (looked up): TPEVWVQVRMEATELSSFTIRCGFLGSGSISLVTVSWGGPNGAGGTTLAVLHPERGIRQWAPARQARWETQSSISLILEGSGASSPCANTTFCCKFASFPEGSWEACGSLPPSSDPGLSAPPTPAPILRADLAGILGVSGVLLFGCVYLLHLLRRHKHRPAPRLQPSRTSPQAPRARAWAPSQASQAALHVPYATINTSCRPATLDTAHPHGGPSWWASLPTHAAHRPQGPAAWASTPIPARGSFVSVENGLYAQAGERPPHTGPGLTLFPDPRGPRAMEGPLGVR
Description: FACS, FlpinCHO-PVRIG cells. As for the experimental part: After discarding the cell culture medium, the cells were rinsed with PBS and digested for 8-10 minutes by adding 1 mL Versene (Gibico, 15040-066). The Ham's F12 (Gibico, 21127-022) complete medium containing 10% FBS was then added to terminate the digestion and acquire cell suspension. After counting with a cell counter (Beckman Coulter, Vi-CELL), an appropriate amount of cell suspension was centrifuged at 350×g to remove the supernatant, washed twice with PBS, stained with Zombie violet (Biolegend, 423114) and incubated at room temperature for 20 minutes. After incubation, the cells were added with staining buffer (2% FBS+PBS) to stop staining, centrifuged at 350×g to remove the supernatant, washed twice and resuspended with staining buffer to a density of 2×10⁶ cells/mL. The cells were plated into a 96-well plate (50 μL of cell suspension per well) for further use. The antibodies were diluted from the highest concentration of 46 nM (two-fold concentration) with staining buffer by 3.3-fold serial dilution. The diluted antibodies were added to the well containing 50 μL of cell suspension. The plate was placed on a microplate shaker at 400 rpm for 1 minute to fully mix the antibodies and cells, and then incubated at 4° C. for 30 minutes. After the incubation, the cells were washed twice with staining buffer (200 μL per well) and centrifuged at 350×g for 5 minutes to discard the supernatant. The PE goat anti-human IgG Fc antibody (ebioscience, 12-4998-82) was diluted 250 times with staining buffer, added into the washed wells (100 μL per well), mixed well, and stained at 4° C. for 30 minutes. After staining, the cells were washed twice with staining buffer, finally resuspended with 200 μL staining buffer and analyzed by flow cytometry (BD, Canto II). The stronger the signal, the stronger the ability of the antibodies binds to PVRIG. An antibody binding curve was drawn with concentration of antibodies as the abscissa and the corresponding Mean Fluorescence Intensity (MFI) as the ordinate. The AUC value of the curve was calculated by using a Four Parameter Logistic Fit (GraphPadPrism9).

Assay [4] has as its target T4, cynomolgus monkey PVRIG (Novoprotein, Cat NO. C09B) (cynomolgus monkey, UniProt A0A2K5WVV8 41-171).
T4 construct: bought reagent; also called cynomolgus monkey PVRIG recombinant protein
T4 sequence: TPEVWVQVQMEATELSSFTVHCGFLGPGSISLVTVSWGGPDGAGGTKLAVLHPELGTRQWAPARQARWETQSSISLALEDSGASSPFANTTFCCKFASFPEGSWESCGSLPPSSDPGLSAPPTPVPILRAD
Briefly: ELISA, coated cynomolgus monkey PVRIG.

B1: RG6058-hIgG1 (antibody, V domains shown)
VH: EVQLQQSGPGLVKPSQTLSLTCAISGDSVSSNSAAWNWIRQSPSRGLEWLGKTYYRFKWYSDYAVSVKGRITINPDTSKNQFSLQLNSVTPEDTAVFYCTRESTTYDLLAGPFDYWGQGTLVTVSS
VL: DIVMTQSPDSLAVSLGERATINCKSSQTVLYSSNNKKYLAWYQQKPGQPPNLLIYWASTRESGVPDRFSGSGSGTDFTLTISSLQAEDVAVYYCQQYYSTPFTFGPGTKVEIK
notes: human IgG1 format by its name; also called Roche RG6058; control antibody RG6058
As to B1, in assay [1], the dissociation constant (Kd) was determined as 0.163 nM, the koff came to 0.000147 s⁻¹ and the kon amounted to 903000 M⁻¹ s⁻¹. Moreover, in assay [2], it took 0.616 nM to reach a half-maximal effect (EC50).

B2: PVRIG-A105 (VHH)
VHH: EVQLVESGGGLVQAGGSLRLSCAASGRTFDRHTMTWFRQAPGKEREFVATASRIPGDTYYSHSVKGRFTISRDNAKNTVYLQLNNLKPEDTAVYYCAATSAYCSEVDCYEKGSWYDNWGQGIQVTVSS
notes: tested as VHH-hinge-CH2-CH3 (human IgG1-Fc); not shown: human IgG1 hinge-CH2-CH3
Take B2: the “EC50 (read off the curve)” value in assay [3] was about 0.4 nM.

B3: SRF813-hIgG1 (antibody, V domains shown)
VH: QVQLVQSGAEVKKPGSSVKVSCKASGGTFSSAAISWVRQAPGQGLEWMGNIIPIVGIANYAQKFQGRVTITADESTSTAYMELSSLRSEDTAVYYCARDTGRGYTRHFWFDPWGQGTLVTVSS
VL: DIQMTQSPSSLSASVGDRVTITCRASQSISSYLNWYQQKPGKAPKLLIYAASSLQSGVPSRFSGSGSGTDFTLTISSLQPEDFATYYCQQSDILYTFGGGTKVEIK
notes: human IgG1 format by its name
For B3, the “EC50 (read off the curve)” value in assay [4] was about 0.06 nM.
